This note sets out measurements from the DeepSol protein solubility set.

The nature of this data set: soluble on expression in E. coli; label from the status in PepcDB or PDB records.
Take “MIEITFLGGGGGRFVTITQVRATGGFFIKASKNIYVDPGPGALVRMWRYKIDPRKVDVLFISHRHTDHCNDAEVLVEGMTYGVTKKRGTLIGSKSVVHGDENHTPALSKYHLDALEEVHAPNPGDRFKIGEDEMIITPSLHSDPTTIGFRLKTSYGDISYIPDTEYFEELVKWHDGARVIIAAVTRPRDMRIPFHLSSEDAVYLLKSMKQKPEVFIMTHAGMKMHFAGPYKEAQFIQNLTGVKTYVAKEGFKVSIGKEISVKTLRPARFVLEHHHHHH”: the “soluble on expression in E. coli” value is given as “soluble”.

For the sequence “MGSDKIHHHHHHMSRRLPPLNAVKAFEAAARHLSFTRAAEELFVTQAAVSHQIKALEDFLGLKLFRRKNRSLLLTEEGQSYFLDIKDIFTQLSDATDRLLARSAIGSLTVSMSPSFAIQWLVPRLAKFSEKNPDIDVRIKAVDSEEGSLTDDVDVAIYYGQGSWPGLRADKLRNEVLIPVCSPMLLNGHKPLETPADLKHHTLLHDMSRHDWQAWFRQCGVTDVNVNQGPIFSHSSLVLQAAAHGQGVALGYSVLARPDIKAGRLVVPFQEVLVSKDAYYLVCQQNHAELGKIVAFREWMLDMFAEESRSELLPA”, the “soluble on expression in E. coli” value is on record as “not soluble”.

“MADFKVLSSQDIMWALHELKGHYAITRKDFESHQHMENLTSQDEVPRDTRPFLMPLKNGRSYHQKPVEKGKREKK”: the “soluble on expression in E. coli” value was “not soluble”.

Consider “MAHHHHHHMENNNHGCNMHDDNFDLLMKKICNELKKGDKNKNGLIMYNTFIDVLDLFQIEYGSSIIDYLMKHCVVTEDGFVNYKNLWLIHDPSKTMRNNSESVEESINPKFMDIQDRYEDIDKYTQEKNEIIRKLYSQWDKCLLRDDEFKAKLINGNIDITPEFERSLYLYGPSRSLSFANVMKTLYINDSKNRKNRNNFVSKIKDEKWRKLNIDENEQQCFQDIHRNPIAWEGSNVTDADNLIQNVELISNYLRGEENVNMRKEEFISHDFFNNTVKNLIKNYISNKISESEFYLCLNKLNISVTPQLNNLIKCHELDSNGKFKDFATTINRCIPKNLLHSLQRRVQLYGAQKNDKDSKLNFSYNNCCCDRLCPNVTDDNPYSNENIDKH”, for which the “soluble on expression in E. coli” value is recorded as “not soluble”.

As for “MSLQSFRVQCPTSTITHNPNSNFPGGIKCQQISGGDGYSTMADGVQTYMFSFGPLSGLADIRNGLPGTQPASIFNTLGNPYTDTTFNGAVGLTPDPDSVPPNQIDGHVDPRPIMDIGVMNGNIPAPLMAIDEDDEFFLTLTNVGMIMRPDLFERHTVHFHGYPNASSFYDGVPDASVAINIGGSFTYYYLAPDAGTYFWHCHITPPEHLQMGMVGQIYVRPRQDRVPAGAALYTALVGQQADLRTACGTTDVLCSTPLPPTNAVKRLNNKNGTPTLYAYNDGDGSTAYDVEYPIQIHGFDPNFHFIGMTFNPEPFTDMKDKYFMLNGRSYPDTITPGPMTTPSSDGALHYSQPLPTVINIPAGGKALLRISNLDVTEYQTLASLGIPMHVIGINARLLRDMAGGDMTYYANSITLGGGESLDVLLDASDTSSYPRGSTFYLYTPNLDHLSNDAENFGGLMTEVHICGAVDPATKQCTEGHHHHHH”, the “soluble on expression in E. coli” value is listed as “not soluble”.

Consider “MSLNTAMAINKPKKVNKVMNYKSCFDIIGPIMIGPSSSHTAGALAIGLAARKLFGGTPEKIVIKYYESFADTHKGHGTDFAIIGGILGLAADDANVTQSIELAEEQGIEIQFLEMSEESPVKHANTACVTLSDATHEIHLTGISVGGGTIEVKYIELDGFNVQLHGPLPILLVINQEEQAMQAFKDTLQKNNIQVNAVSRYVEGNQILFIFDLDSAPISSVKEQLFSLDDTSKIILLEGGSHHHHHH”, for which the “soluble on expression in E. coli” value is given as “soluble”.

With “MGSDKIHHHHHHMLRGLWGAAAGMITQQQRQEMLTNNLANVNTPGYKADQAAIRAFPNMLIAAMNTGNVPKGVAPVIGELTTGVYLQERMPNFRQGDLVETQNNTDVALLQGVMPTNEENGQPWALFYTVQNENGEVRYTRNGNFTVDGDGFLTTGDGFYVLGTDGNPLQVNNEWFNVDGDGMITDEAGAAIGQINVVVAEDPMQLVKEGNGLLRFEGDGELPTGVGNAAVNYQLQQGFIERSNVDAAQTMTEMMQAYRTFEANQQVLRAYDESLGKAVNEVGRIG”, the “soluble on expression in E. coli” value is reported as “not soluble”.

“MYAAKGTQAYAQIGVESAVMSASQQQLVTMLFDGVLSALVRASLFMQDNNQQGKGVSLSKAINIIENGLRVSLDEESKDELTQNLIALYSYMVRRLLQANLRNDVSAVEEVEALMRNIADAWKESLLSPSLIQDPV”: the “soluble on expression in E. coli” value is given as “soluble”.

“MIKIDDEAITFVVQGPVQASASRQQIAGITEQCLNSIRRFFPKSTIILSTWKGQPLDGLDYDQVLELDDPGANTVFYDGQPIKLNNNRQMYSTHMGLKAVKTPYAVKLRTDNLLTGRQFVELYERYADLPRAQNYQFLTQRVLTSSTFFISSHYGHPVHFHKSDLFDFGLTQDLLTIWSDRWIPELHFTLKPGYKARHPATEQVLCLNWISALLDEEHHIESKTCDHAGLGENFWPQFMANNLLMDCPENIGLDVTERFYKRGNLALEYDLKDWLHLNQITSIPYDKKRLYRYYRNQIGRILKKIHSFN”: the “soluble on expression in E. coli” value is “not soluble”.

For “MVIQLQKGQKIDLGKTSPGLTKAVIGLGWDIKSYDGGSDFDLDASAFLLDANGKCTKETDFIFYNNLQSPCGSVLHTGDNRTGEGEGEGDDEQLVVDLKKVPADVHRIAITVTIYDAEGRSQNFGQVGNAFVRLANEETNEEVLRFDLGEDFSIETAVVFCELYRHNGQWKFNAVGSGFQGGLGALVRAYGLDA”, the “soluble on expression in E. coli” value is “not soluble”.

On to “CYVDTNNDGAYEGDELHMGSLTVKAYLLGKEEAAREIRRFSFCFSPEPEAEAAAGPGPSERLLSRVAVLFPALRPGGFQAHYRAERGDLVAFSSDEELTMAMSYVKDDIFRIYIKEK”, for which the “soluble on expression in E. coli” value is listed as “soluble”.

With “MSLDENKPVLVLGATGKQGGSAARYLLERGWTVRAFVRDPGAPKAKELRELGASLHTGDLEDAGSVRAAMKGAYGVFSIQTPMTPAGVEGEERQGKICADAARDLGVQHYVHSSVGGAERPEGVNWRLSKLAIEQRIQENALRFTFLRPSYFMENLNHDMSPLVMEDGVLTFRRGLGPANTLQMISGPDIGYFAADAFDDPDTFGGAKIELAGDELTGEQIAAAFGRHTGLPARFVSVPIPELHRTGFEWQAISYTWLNGIGYHADIPTLRARFPQLLTLDQWLARTGWTPRDPAEGHHHHHH”, the “soluble on expression in E. coli” value is on record as “soluble”.

Take “MGSDKIHHHHHHAAENLPIQNELFSEYFKKLNPTNYNTKMNRELYIFFKQMFNIDIVKDNIDNANFPTFEEVLGLLDLAEQRKEAFRNFGLENLNNRSDSIRFLRQYLILLMAEAIHNTPRTDNKYHKLLVENLLENDLLLDTTFISANYDIHIDNTVTGLRDKNDLPIMLDYGVEFTNFKEELNWRKPKEPLIKLYKIHGSLNWLYCPICNSVTLTPHEGGVMKLIENSSETKCLECGELTEPIIVPPTYFKNMSNIFLSNVWNETEKTLRDTDLLIFCGYSFPEADMHIKYMLKRVQTNRKKPPLKIMVFNNHSQKQRITLKKEEGRYKRFLGEDVIFTDNSFQDFSVNPLRFIKNI”: the “soluble on expression in E. coli” value is “not soluble”.

On to “GPVDNNNNNGLKNSTEPIYAKVNKKKTGQVASPEEPIYTQVAKKVNAKIDRLNQIASGLGGVGQAAGFPLKRHDKVDDLSKVGLSASPEPIYATIDDLGGPFPLKRHDKVDDLSKVGRSRNQELA”, for which the “soluble on expression in E. coli” value was “soluble”.

As to “MARLNVNPTRMELSRLKKQLTTATRGHKLLKDKQDELMRRFIALVKENNELRIQVEQEVTDALSNFVLANATLNEAFIEELVAIPAEKVELEIIEQNILSVPVPKMIFDYDESVQEAPLDYGYVNSNSELDQAFAKISSILPKLLALANVEKTCQLLSKEIEKTRRRVNALEYMTIPQLEETIYYIQMKLEENERGEITRLIKIKSMNKENLEHHHHHH”, the “soluble on expression in E. coli” value was “not soluble”.

In the case of “QEGTLERSDWRKFFSEFQAKGTIVVADERQADRAMLVFDPVRSKKRYSPASTFKIPHTLFALDAGAVRDEFQIFRWDGVNRGFAGHNQDQDLRSAMRNSTVWVYELFAKEIGDDKARRYLKKIDYGNADPSTSNGDYWIEGSLAISAQEQIAFLRKLYRNELPFRVEHQRLVKDLMIVEAGRNWILRAKTGWEGRMGWWVGWVEWPTGSVFFALNIDTPNRMDDLFKREAIVRAILRSIEALPPNPAVNSDAAR”, the “soluble on expression in E. coli” value was “soluble”.
